From patent US6355790, “Inhibition of HIV replication using a mutated transfer RNA primer” (University of Rochester)

Assays:
[1] = molecular target: MoMuLV reverse transcriptase (Moloney murine leukemia virus, UniProt P03355 P03355:660-1330); test: EMSA; did not bind MoMuLV RT
[2] = molecular target: T1, HIV-1 reverse transcriptase (p66/p51) (Human immunodeficiency virus 1, UniProt P04585;P04585 P04585:588-1147,P04585:588-1027); test: EMSA; affinity similar to tRNALys3; 100-fold excess competes effectively; 6 mM MgCl2, 60 mM NaCl, pH 8.3, 37 C; conditions: Genetics Institute (Cambridge, MA) for polymerase assays; tRNA cloverleaf, acceptor stem restored
[3] = molecular target: T1, HIV-1 reverse transcriptase (p66/p51); test: EMSA; complex formed; competed by 100-fold excess of itself; 6 mM MgCl2, 60 mM NaCl, 40 mM Tris-HCl pH 8.3, 10 mM DTT, 37 C; conditions: Genetics Institute (Cambridge, MA) for polymerase assays; label: 32P (CTP, internal); tRNA cloverleaf

B1: tRNAtarD (ssRNA)
RNA: UAGACCAUAGCUCAGUCGGUAGAGCAUCAGACUUUUAAUCUGAGGGUCCAGGGUUCAAGUCCCUGUGGUCUAACCA
B1: no binding [1]; binds [2].

B2: tRNALys3 (ssRNA)
RNA: GCCCGGAUAGCUCAGUCGGUAGAGCAUCAGACUUUUAAUCUGAGGGUCCAGGGUUCAAGUCCCUGUUCGGGCGCCA
B2: binds [3].
